Eleven molecules from paper PMC10897159, “Structural insights into the activation mechanism of antimicrobial GBP1” (The EMBO Journal, 2024) can be followed below.

A word on the stoichiometry N: it is the number of molecules, sites or subunits per partner or assembly.

The target of data set [1] is GBP1 Δ207-223, non-farnesylated (human) (UniProt P32455). The experiment in a line: cross-linking; BS3 at 20-times molar excess, 20 µM protein, with 200 µM GDP, 300 µM AlCl3, 10 mM NaF (GDP•AlFx); 50 mM HEPES, 150 mM NaCl, 5 mM MgCl2; SDS-PAGE.
In data set [2] the target is GBP1 M139R, non-farnesylated (human) (UniProt P32455). The experiment in a line: SEC; analytical SEC (Superdex 200 5/150), 20 µM protein with 200 µM GDP, 300 µM AlCl3, 10 mM NaF (GDP•AlFx); 50 mM Tris-HCl pH 7.9, 150 mM NaCl, 5 mM MgCl2.
In data set [3] the target is GBP1 M139E, non-farnesylated (human) (UniProt P32455). The description is as above.
Data set [4] has as its target T1, human guanylate-binding protein 1 (GBP1), wild-type, non-farnesylated (human), P32455.
T1 chain: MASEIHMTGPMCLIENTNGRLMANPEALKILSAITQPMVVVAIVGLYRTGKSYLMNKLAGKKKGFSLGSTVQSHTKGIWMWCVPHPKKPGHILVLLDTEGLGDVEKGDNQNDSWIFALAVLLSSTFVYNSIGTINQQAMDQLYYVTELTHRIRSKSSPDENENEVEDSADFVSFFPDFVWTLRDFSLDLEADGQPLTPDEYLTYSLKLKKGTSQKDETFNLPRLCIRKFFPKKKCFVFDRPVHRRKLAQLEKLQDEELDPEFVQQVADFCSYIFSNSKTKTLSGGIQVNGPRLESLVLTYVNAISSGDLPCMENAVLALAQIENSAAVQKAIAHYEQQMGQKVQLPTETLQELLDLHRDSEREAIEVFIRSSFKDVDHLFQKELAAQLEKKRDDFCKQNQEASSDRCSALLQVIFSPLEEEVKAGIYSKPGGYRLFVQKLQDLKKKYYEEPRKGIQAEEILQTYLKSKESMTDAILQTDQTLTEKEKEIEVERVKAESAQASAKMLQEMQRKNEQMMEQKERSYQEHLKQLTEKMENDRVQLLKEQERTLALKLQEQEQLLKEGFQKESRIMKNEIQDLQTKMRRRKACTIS
The experiment in a line: cross-linking; BS3 at 20-times molar excess, 20 µM protein, with 200 µM GDP, 300 µM AlCl3, 10 mM NaF (GDP•AlFx); 50 mM HEPES, 150 mM NaCl, 5 mM MgCl2; SDS-PAGE. Conditions: remark: other sources report otherwise.

In data set [5] the target is T1, human guanylate-binding protein 1 …. The experiment in a line: specific GTPase activity against protein concentration (HPLC), quadratic fit; apparent Kd of dimer formation; non-farnesylated GBP1, 1 mM GTP, 37 °C, 50 mM Tris-HCl pH 7.9, 150 mM NaCl, 5 mM MgCl2; dimer to monomers. The note with it: remark: other sources report otherwise.
Data set [6] addresses T2, human guanylate-binding protein 1 (GBP1), wild-type, farnesylated (human), P32455.
T2 chain: T1 chain
The experiment in a line: cryo-EM structure; single particle analysis of polymeric disks; 5 µM farnesylated GBP1 with GDP•AlFx for 20-30 min, no membranes; ~37 Å. The note with it: remark: other sources report otherwise.

Data set [7] concerns the molecule itself. The experiment in a line: light scattering-based polymerization assay; 10 µM farnesylated GBP1, polymerization started with 1 mM GTP (for the pivot point mutants also with LPS added); 50 mM Tris-HCl pH 7.9, 150 mM NaCl, 5 mM MgCl2; absorbance at 350 nm over 40 min; dimers to polymers.
Data set [8] concerns the molecule itself. The experiment in a line: cross-linking; BS3 at 20-times molar excess, 20 µM protein, with 200 µM GDP, 300 µM AlCl3, 10 mM NaF (GDP•AlFx); 50 mM HEPES, 150 mM NaCl, 5 mM MgCl2; SDS-PAGE.
Data set [9] concerns the molecule itself. The experiment in a line: specific GTPase activity against protein concentration (HPLC), quadratic fit; apparent Kd of dimer formation; non-farnesylated GBP1, 1 mM GTP, 37 °C, 50 mM Tris-HCl pH 7.9, 150 mM NaCl, 5 mM MgCl2; dimer to monomers.
Data set [10] concerns the molecule itself. The experiment in a line: SEC; analytical SEC (Superdex 200 5/150), 20 µM protein with 200 µM GDP, 300 µM AlCl3, 10 mM NaF (GDP•AlFx); 50 mM Tris-HCl pH 7.9, 150 mM NaCl, 5 mM MgCl2.

Substitutions are numbered along the chain they refer to. Numbers in names are those of the source.

The molecule “GBP1 Δ207-223, non-farnesylated (from UniProt P32455 1-592) (natural protein)” showed a stoichiometry N in data set [1] of 2.
Regarding “GBP1 M139R, non-farnesylated (from UniProt P32455 1-592) (natural protein)”, the stoichiometry N in data set [2] stood at 2.
The molecule “GBP1 M139E, non-farnesylated (from UniProt P32455 1-592) (natural protein)” came in with a stoichiometry N in [3] of 2.

B1: human guanylate-binding protein 1 (GBP1), wild-type, non-farnesylated, P32455 1-592 (natural protein)
chain: T1 chain
Turning to B1, the stoichiometry N in data set [4] came to 2. Besides, the Kd in [5] is 1900 nM.

B2: human guanylate-binding protein 1 (GBP1), wild-type, farnesylated, P32455 1-592 (natural protein)
chain: T1 chain
modifications: here or on the partner: farnesyl moiety at the C-terminal CaaX box motif; farnesyl moiety at the C-terminal CaaX box motif
B2 had a subunits (dimeric building blocks) in a planar polymeric disk in data set [6] of 30 subunits.

B3: GBP1 D199A, farnesylated (natural protein, human, UniProt P32455 1-592, looked up)
chain: T1 chain with D199A
modifications: farnesyl moiety at the C-terminal CaaX box motif
notes: GBP1, human, full-length construct with D199A in helix α4; also called pivot point mutant
In the case of B3, the binding result in [7] was “binds”.

B4: GBP1 D199K, farnesylated (natural protein, human, UniProt P32455 1-592, looked up)
chain: T1 chain with D199K
modifications: farnesyl moiety at the C-terminal CaaX box motif
notes: GBP1, human, full-length construct with D199K in helix α4; also called pivot point mutant
Turning to B4, the binding result in [7] was “binds”.

B5: GBP1 Δ207-213, non-farnesylated (natural protein, human, UniProt P32455 1-592, looked up)
chain: MASEIHMTGPMCLIENTNGRLMANPEALKILSAITQPMVVVAIVGLYRTGKSYLMNKLAGKKKGFSLGSTVQSHTKGIWMWCVPHPKKPGHILVLLDTEGLGDVEKGDNQNDSWIFALAVLLSSTFVYNSIGTINQQAMDQLYYVTELTHRIRSKSSPDENENEVEDSADFVSFFPDFVWTLRDFSLDLEADGQPLTPDEYLTYSLGGGSGGGSQKDETFNLPRLCIRKFFPKKKCFVFDRPVHRRKLAQLEKLQDEELDPEFVQQVADFCSYIFSNSKTKTLSGGIQVNGPRLESLVLTYVNAISSGDLPCMENAVLALAQIENSAAVQKAIAHYEQQMGQKVQLPTETLQELLDLHRDSEREAIEVFIRSSFKDVDHLFQKELAAQLEKKRDDFCKQNQEASSDRCSALLQVIFSPLEEEVKAGIYSKPGGYRLFVQKLQDLKKKYYEEPRKGIQAEEILQTYLKSKESMTDAILQTDQTLTEKEKEIEVERVKAESAQASAKMLQEMQRKNEQMMEQKERSYQEHLKQLTEKMENDRVQLLKEQERTLALKLQEQEQLLKEGFQKESRIMKNEIQDLQTKMRRRKACTIS
notes: GBP1, human, full-length construct; also called helix α4’ variant; source: E. coli, pQE-80L, purified (Ni Sepharose HP, Superdex 200)
Turning to B5, in data set [8], the “stoichiometry N” value turned out to be 2. Besides, in data set [9], the “fold lower dimerization affinity than wild-type GBP1” value worked out at 3 fold.

B6: isolated LG domain of GBP1 Δ207-223 (domain or fragment, human, UniProt P32455 1-317, looked up)
chain: MASEIHMTGPMCLIENTNGRLMANPEALKILSAITQPMVVVAIVGLYRTGKSYLMNKLAGKKKGFSLGSTVQSHTKGIWMWCVPHPKKPGHILVLLDTEGLGDVEKGDNQNDSWIFALAVLLSSTFVYNSIGTINQQAMDQLYYVTELTHRIRSKSSPDENENEVEDSADFVSFFPDFVWTLRDFSLDLEADGQPLTPDEYLTYSLGGGSLCIRKFFPKKKCFVFDRPVHRRKLAQLEKLQDEELDPEFVQQVADFCSYIFSNSKTKTLSGGIQVNGPRLESLVLTYVNAISSGDLPCMENAVL
notes: LG domain of GBP1, human; stop codon in place of A318; also called α4’ variant LG domain construct; source: E. coli, pQE-80L, purified (Ni Sepharose HP, Superdex 200)
As to B6, the “stoichiometry N” value in data set [10] was 2.

B7: isolated LG domain of GBP1 Δ207-216 (domain or fragment, human, UniProt P32455 1-317, looked up)
chain: MASEIHMTGPMCLIENTNGRLMANPEALKILSAITQPMVVVAIVGLYRTGKSYLMNKLAGKKKGFSLGSTVQSHTKGIWMWCVPHPKKPGHILVLLDTEGLGDVEKGDNQNDSWIFALAVLLSSTFVYNSIGTINQQAMDQLYYVTELTHRIRSKSSPDENENEVEDSADFVSFFPDFVWTLRDFSLDLEADGQPLTPDEYLTYSLGGGSETFNLPRLCIRKFFPKKKCFVFDRPVHRRKLAQLEKLQDEELDPEFVQQVADFCSYIFSNSKTKTLSGGIQVNGPRLESLVLTYVNAISSGDLPCMENAVL
notes: as for B6
Take B7: the “stoichiometry N” value in data set [10] came to 2.

B8: GBP1 Δ207-216, non-farnesylated (natural protein, human, UniProt P32455 1-592, looked up)
chain: MASEIHMTGPMCLIENTNGRLMANPEALKILSAITQPMVVVAIVGLYRTGKSYLMNKLAGKKKGFSLGSTVQSHTKGIWMWCVPHPKKPGHILVLLDTEGLGDVEKGDNQNDSWIFALAVLLSSTFVYNSIGTINQQAMDQLYYVTELTHRIRSKSSPDENENEVEDSADFVSFFPDFVWTLRDFSLDLEADGQPLTPDEYLTYSLGGGSETFNLPRLCIRKFFPKKKCFVFDRPVHRRKLAQLEKLQDEELDPEFVQQVADFCSYIFSNSKTKTLSGGIQVNGPRLESLVLTYVNAISSGDLPCMENAVLALAQIENSAAVQKAIAHYEQQMGQKVQLPTETLQELLDLHRDSEREAIEVFIRSSFKDVDHLFQKELAAQLEKKRDDFCKQNQEASSDRCSALLQVIFSPLEEEVKAGIYSKPGGYRLFVQKLQDLKKKYYEEPRKGIQAEEILQTYLKSKESMTDAILQTDQTLTEKEKEIEVERVKAESAQASAKMLQEMQRKNEQMMEQKERSYQEHLKQLTEKMENDRVQLLKEQERTLALKLQEQEQLLKEGFQKESRIMKNEIQDLQTKMRRRKACTIS
notes: as for B5
Take B8: in data set [8], the “stoichiometry N” value was 2. Also, in [9], the “fold lower dimerization affinity than wild-type GBP1” value amounted to 1.8 fold.
